Tests used:
[1] = target: HLA-B*2708 (B27) single antigen on Luminex beads (human); assay: Luminex single antigen, iBead vs regular bead, IVIg 1:8
[2] = target: HLA-B*3501 (B35) single antigen on Luminex beads (human); assay: as above
[3] = target: HLA-B*4501 (B45) single antigen on Luminex beads (human); assay: as above
[4] = target: HLA-B*4101 (B41) single antigen on Luminex beads (human); assay: as above
[5] = target: HLA-B*3901 (B39) single antigen on Luminex beads (human); assay: as above
[6] = target: HLA-B*4001 (B60) single antigen on Luminex beads (human); assay: as above
[7] = target: HLA-B*4701 (B47) single antigen on Luminex beads (human); assay: as above
[8] = target: HLA-B*3801 (B38) single antigen on Luminex beads (human); assay: as above
[9] = target: HLA-B*4601 (B46) single antigen on Luminex beads (human); assay: as above
[10] = target: HLA-B*4201 (B42) single antigen on Luminex beads (human); assay: as above
[11] = target: HLA-B*4006 (B61) single antigen on Luminex beads (human); assay: as above
[12] = target: HLA-B*4403 (B44) single antigen on Luminex beads (human); assay: as above
[13] = target: HLA-B*2705 (B27) single antigen on Luminex beads (human); assay: as above
[14] = target: HLA-B*4402 (B44) single antigen on Luminex beads (human); assay: as above
[15] = target: HLA-B*3701 (B37) single antigen on Luminex beads (human); assay: as above
[16] = target: HLA-B*4002 (B61) single antigen on Luminex beads (human); assay: as above
[17] = target: HLA-B*2708 (B27) single antigen on Luminex beads (human); assay: Luminex single antigen, regular beads (#7), IVIg 1:8
[18] = target: HLA-B*3501 (B35) single antigen on Luminex beads (human); assay: as above
[19] = target: HLA-B*4501 (B45) single antigen on Luminex beads (human); assay: as above
[20] = target: HLA-B*4101 (B41) single antigen on Luminex beads (human); assay: as above
[21] = target: HLA-B*3901 (B39) single antigen on Luminex beads (human); assay: as above
[22] = target: HLA-B*4701 (B47) single antigen on Luminex beads (human); assay: as above
[23] = target: HLA-B*3801 (B38) single antigen on Luminex beads (human); assay: as above
[24] = target: HLA-B*4601 (B46) single antigen on Luminex beads (human); assay: as above
[25] = target: HLA-B*4006 (B61) single antigen on Luminex beads (human); assay: as above
[26] = target: HLA-B*4403 (B44) single antigen on Luminex beads (human); assay: as above
[27] = target: HLA-B*4402 (B44) single antigen on Luminex beads (human); assay: as above
[28] = target: HLA-B*3701 (B37) single antigen on Luminex beads (human); assay: as above
[29] = target: HLA-B*4002 (B61) single antigen on Luminex beads (human); assay: as above
[30] = target: HLA-A*0301 (A3) on single antigen beads (human) (UniProt P04439); assay: Luminex single antigen beads, iBeads (#6), 1:8
[31] = target: Albumin on negative control beads (serum albumin, HSA/BSA) (human or bovine); assay: Luminex single antigen beads, iBeads (#6), 1:8
[32] = target: HLA-A*0301 (A3) on single antigen beads (human) (UniProt P04439); assay: Luminex single antigen beads, regular beads (#7), 1:8
[33] = target: Albumin on negative control beads (serum albumin, HSA/BSA) (human or bovine); assay: as above
[34] = target: HLA-A*0301 (A3) on single antigen beads (human) (UniProt P04439); assay: Luminex, iBead MFI against regular bead MFI, 1:8
[35] = target: Albumin on negative control beads (serum albumin, HSA/BSA) (human or bovine); assay: Luminex, iBead MFI against regular bead MFI, 1:8
[36] = target: HLA-B*2708 (B27) single antigen on Luminex beads (human); assay: Luminex single antigen, iBeads (#6), IVIg 1:8
[37] = target: HLA-B*3501 (B35) single antigen on Luminex beads (human); assay: Luminex single antigen, iBeads (#6), IVIg 1:8
[38] = target: HLA-B*4501 (B45) single antigen on Luminex beads (human); assay: Luminex single antigen, iBeads (#6), IVIg 1:8
[39] = target: HLA-B*4101 (B41) single antigen on Luminex beads (human); assay: Luminex single antigen, iBeads (#6), IVIg 1:8
[40] = target: HLA-B*3901 (B39) single antigen on Luminex beads (human); assay: Luminex single antigen, iBeads (#6), IVIg 1:8
[41] = target: HLA-B*4001 (B60) single antigen on Luminex beads (human); assay: Luminex single antigen, iBeads (#6), IVIg 1:8
[42] = target: HLA-B*3801 (B38) single antigen on Luminex beads (human); assay: Luminex single antigen, iBeads (#6), IVIg 1:8
[43] = target: HLA-B*4601 (B46) single antigen on Luminex beads (human); assay: Luminex single antigen, iBeads (#6), IVIg 1:8
[44] = target: HLA-B*4201 (B42) single antigen on Luminex beads (human); assay: Luminex single antigen, iBeads (#6), IVIg 1:8
[45] = target: HLA-B*4006 (B61) single antigen on Luminex beads (human); assay: Luminex single antigen, iBeads (#6), IVIg 1:8
[46] = target: HLA-B*4403 (B44) single antigen on Luminex beads (human); assay: Luminex single antigen, iBeads (#6), IVIg 1:8
[47] = target: HLA-B*2705 (B27) single antigen on Luminex beads (human); assay: Luminex single antigen, iBeads (#6), IVIg 1:8
[48] = target: HLA-B*4402 (B44) single antigen on Luminex beads (human); assay: Luminex single antigen, iBeads (#6), IVIg 1:8
[49] = target: HLA-B*3701 (B37) single antigen on Luminex beads (human); assay: Luminex single antigen, iBeads (#6), IVIg 1:8
[50] = target: HLA-B*4002 (B61) single antigen on Luminex beads (human); assay: Luminex single antigen, iBeads (#6), IVIg 1:8

Gamunex-C Lot NKLK1 (IVIg) (antibody)
Difference % (iBead against regular bead MFI) [1]: 0% | Difference % (iBead against regular bead MFI) [2]: -61% | Difference % (iBead against regular bead MFI) [3]: -29% | Difference % (iBead against regular bead MFI) [4]: -100% | Difference % (iBead against regular bead MFI) [5]: 0% | Difference % (iBead against regular bead MFI) [6]: -93% | Difference % (iBead against regular bead MFI) [7]: -39% | Difference % (iBead against regular bead MFI) [8]: -100% | Difference % (iBead against regular bead MFI) [9]: -65% | Difference % (iBead against regular bead MFI) [10]: -100% | Difference % (iBead against regular bead MFI) [11]: -90% | Difference % (iBead against regular bead MFI) [12]: -31% | Difference % (iBead against regular bead MFI) [13]: -100% | Difference % (iBead against regular bead MFI) [14]: -85% | Difference % (iBead against regular bead MFI) [15]: -87% | Difference % (iBead against regular bead MFI) [16]: 0% | MFI [17]: 0 MFI | MFI [18]: 1480 MFI | MFI [19]: 562 MFI | MFI [20]: 605 MFI | MFI [21]: 0 MFI | MFI [22]: 2030 MFI | MFI [23]: 1260 MFI | MFI [24]: 2450 MFI | MFI [25]: 4340 MFI | MFI [26]: 1210 MFI | MFI [27]: 5310 MFI | MFI [28]: 4790 MFI | MFI [29]: 0 MFI | MFI [30]: -211 MFI | MFI [31]: 7800 MFI | MFI [32]: 410 MFI | MFI [33]: 10300 MFI | Difference % (iBead against regular bead) [34]: -151% | Difference % (iBead against regular bead) [35]: -24% | MFI [36]: 0 MFI | MFI [37]: 577 MFI | MFI [38]: 399 MFI | MFI [39]: 0 MFI | MFI [40]: 0 MFI | MFI [41]: 93 MFI | MFI [42]: 0 MFI | MFI [43]: 851 MFI | MFI [44]: 0 MFI | MFI [45]: 421 MFI | MFI [46]: 836 MFI | MFI [47]: 0 MFI | MFI [48]: 786 MFI | MFI [49]: 612 MFI | MFI [50]: 0 MFI
